# B1: Broad substrate specificity ATP-binding cassette transporter ABCG2 (Homo sapiens) (protein)
# chain: MSSSNVEVFIPVSQGNTNGFPATASNDLKAFTEGAVLSFHNICYRVKLKSGFLPCRKPVEKEILSNINGIMKPGLNAILGPTGGGKSSLLDVLAARKDPSGLSGDVLINGAPRPANFKCNSGYVVQDDVVMGTLTVRENLQFSAALRLATTMTNHEKNERINRVIQELGLDKVADSKVGTQFIRGVSGGERKRTSIGMELITDPSILFLDEPTTGLDSSTANAVLLLLKRMSKQGRTIIFSIHQPRYSIFKLFDSLTLLASGRLMFHGPAQEALGYFESAGYHCEAYNNPADFFLDIINGDSTAVALNREEDFKATEIIEPSKQDKPLIEKLAEIYVNSSFYKETKAELHQLSGGEKKKKITVFKEISYTTSFCHQLRWVSKRSFKNLLGNPQASIAQIIVTVVLGLVIGAIYFGLKNDSTGIQNRAGVLFFLTTNQCFSSVSAVELFVVEKKLFIHEYISGYYRVSSYFLGKLLSDLLPMRMLPSIIFTCIVYFMLGLKPKADAFFVMMFTLMMVAYSASSMALAIAAGQSVVSVATLLMTICFVFMMIFSGLLVNLTTIASWLSWLQYFSIPRYGFTALQHNEFLGQNFCPGLNATGNNPCNYATCTGEEYLVKQGIDLSPWGLWKNHVALACMIVIFLTIAYLKLLFLKKYS
# Substrate: CN(Cc1cnc2nc(N)nc(N)c2n1)c1ccc(C(=O)N[C@@H](CCC(=O)O)C(=O)O)cc1
# Test: TP_TRANSPORTER: uptake (vesicle) in membrane vesicle from ABCG2-expressing HEK-293 cells
# Assay type: functional, cell membranes, HEK293
protein,measurement,value
B1,Km,5.7 mM

# Reference: ChEMBL document CHEMBL2073902, “A functional study on polymorphism of the ATP-binding cassette transporter ABCG2: critical role of arginine-482 in methotrexate transport” (Biochem J, 2003)
